This note sets out measurements from patent US20240336663.

Series [1] concerns ZFR11 (Zinc Finger 11-HP1a-KRAB) (synthetic). In words: cell_activity. As to conditions: N2A cells, transfection, qPCR; indirect (repression); text labels ZFR11 as SEQ 10 but the listing gives Zinc Finger 11-HP1a-KRAB as SEQ 11.
Series [2] deals with ZFR3 (Zinc Finger 3-HP1a-KRAB) (synthetic). The series can be described thus: cell_activity. To be noted: N2A cells, transfection, qPCR; indirect (repression); text labels ZFR3 as SEQ 11 but the listing gives Zinc Finger 3-HP1a-KRAB as SEQ 10. For orientation: In qPCR the cycle at which signal appears reflects the starting amount.
Sequence of ZFR3 (Zinc Finger 3-HP1a-KRAB) (synthetic) (chain, as listed by the source): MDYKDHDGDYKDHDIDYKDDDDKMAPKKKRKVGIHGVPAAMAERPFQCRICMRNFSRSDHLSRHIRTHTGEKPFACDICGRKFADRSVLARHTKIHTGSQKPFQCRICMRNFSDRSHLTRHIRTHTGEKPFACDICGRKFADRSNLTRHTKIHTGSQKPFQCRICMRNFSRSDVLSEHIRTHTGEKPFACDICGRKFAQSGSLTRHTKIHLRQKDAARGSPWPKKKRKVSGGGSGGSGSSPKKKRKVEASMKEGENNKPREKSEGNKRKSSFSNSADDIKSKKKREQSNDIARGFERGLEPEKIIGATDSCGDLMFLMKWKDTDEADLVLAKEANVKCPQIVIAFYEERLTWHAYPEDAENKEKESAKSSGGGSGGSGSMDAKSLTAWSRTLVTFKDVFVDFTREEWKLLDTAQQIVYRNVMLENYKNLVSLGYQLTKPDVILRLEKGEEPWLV

Sequence of ZFR11 (Zinc Finger 11-HP1a-KRAB) (synthetic) (chain, as listed by the source): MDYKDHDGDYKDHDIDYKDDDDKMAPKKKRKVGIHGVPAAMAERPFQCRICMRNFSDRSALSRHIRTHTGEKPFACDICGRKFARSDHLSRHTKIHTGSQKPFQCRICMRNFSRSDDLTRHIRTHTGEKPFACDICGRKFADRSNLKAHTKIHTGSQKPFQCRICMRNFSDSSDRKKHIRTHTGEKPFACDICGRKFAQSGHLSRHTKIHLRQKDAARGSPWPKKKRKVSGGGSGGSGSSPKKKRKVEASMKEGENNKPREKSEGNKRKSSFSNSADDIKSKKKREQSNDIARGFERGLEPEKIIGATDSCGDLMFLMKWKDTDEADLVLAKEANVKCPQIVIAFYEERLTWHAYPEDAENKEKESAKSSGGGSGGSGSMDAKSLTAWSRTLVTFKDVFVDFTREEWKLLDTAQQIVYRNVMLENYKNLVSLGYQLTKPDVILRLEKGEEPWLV

“mouse Myd88 promoter target region (20 nt target of each ZF not individually printed)”: the relative Myd88 expression (fold Myd88 expression) in series [1] was 0.21; in series [2] it was 0.22.
